For series [1], the target named is T1, Botulinum neurotoxin type A (Xeomin) (Clostridium botulinum serotype A, UniProt P0DPI1 2-1296).
T1 sequence (P0DPI1 2-1296): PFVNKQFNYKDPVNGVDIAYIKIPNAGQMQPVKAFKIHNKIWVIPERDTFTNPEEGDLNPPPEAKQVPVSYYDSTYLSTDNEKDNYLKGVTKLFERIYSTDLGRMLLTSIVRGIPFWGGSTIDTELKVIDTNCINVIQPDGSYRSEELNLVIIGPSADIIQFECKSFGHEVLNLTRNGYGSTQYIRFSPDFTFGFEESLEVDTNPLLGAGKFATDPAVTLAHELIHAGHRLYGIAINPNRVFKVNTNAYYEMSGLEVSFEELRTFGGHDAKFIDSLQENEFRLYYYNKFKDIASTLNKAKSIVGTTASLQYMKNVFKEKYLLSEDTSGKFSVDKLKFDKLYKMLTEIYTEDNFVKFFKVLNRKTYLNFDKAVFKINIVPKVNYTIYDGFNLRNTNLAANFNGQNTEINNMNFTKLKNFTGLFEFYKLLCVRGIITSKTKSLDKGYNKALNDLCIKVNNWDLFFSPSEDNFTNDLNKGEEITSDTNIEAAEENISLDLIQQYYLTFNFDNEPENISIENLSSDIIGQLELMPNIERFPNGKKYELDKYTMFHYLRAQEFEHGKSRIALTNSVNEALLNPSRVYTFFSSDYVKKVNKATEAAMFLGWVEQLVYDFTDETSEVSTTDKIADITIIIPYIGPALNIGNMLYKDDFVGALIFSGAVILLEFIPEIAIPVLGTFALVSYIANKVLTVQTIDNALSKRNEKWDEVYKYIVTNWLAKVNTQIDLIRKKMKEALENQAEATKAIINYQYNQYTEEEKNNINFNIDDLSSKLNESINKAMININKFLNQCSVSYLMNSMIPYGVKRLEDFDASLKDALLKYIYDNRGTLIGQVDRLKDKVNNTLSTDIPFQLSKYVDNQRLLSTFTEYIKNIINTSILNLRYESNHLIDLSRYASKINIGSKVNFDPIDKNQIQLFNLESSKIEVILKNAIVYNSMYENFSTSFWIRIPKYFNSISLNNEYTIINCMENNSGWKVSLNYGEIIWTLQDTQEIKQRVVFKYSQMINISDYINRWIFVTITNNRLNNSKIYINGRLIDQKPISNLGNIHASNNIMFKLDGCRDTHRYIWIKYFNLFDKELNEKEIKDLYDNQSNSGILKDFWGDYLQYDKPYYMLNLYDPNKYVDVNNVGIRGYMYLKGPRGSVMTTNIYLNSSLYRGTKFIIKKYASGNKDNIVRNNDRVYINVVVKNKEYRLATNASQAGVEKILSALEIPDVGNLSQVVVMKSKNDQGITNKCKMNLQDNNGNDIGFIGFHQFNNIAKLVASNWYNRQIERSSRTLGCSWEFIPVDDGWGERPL
For series [2], the target named is T1, Botulinum neurotoxin type A (Xeomin). Briefly: BLI. Conditions: protein: commercial.
Series [3] deals with Botulinum neurotoxin type A (Xeomin) (Clostridium botulinum serotype A, UniProt P0DPI1 2-1296). Briefly: SERS aptasensor. Conditions: protein: commercial; label: 3' TAMRA.
Target sequence in this assay (P0DPI1 2-1296): as above

Read-outs that look alike come from different tables or passages of the source.

As to AGTGCGGTGAGCCGTCGGACATACAAATAC (ssDNA) [SH-H8-TAMRA], in series [1], the binding result is reported as “no binding”.

B1: Apt_2.22 (structured_DNA)
DNA: ATACCAGCTTATTCAATTGACATGACTGGGATTTTTGGCGAAATCGAAGGAAGCGGAGAGATAGTAAGTGCAATCT
For B1, the Kd in series [2] worked out at 7 ± 4 nM.

B2: Apt_2.22_mod (structured_DNA)
DNA: ATACCAGCTTATTCAATTGACATGACTGGGATTTTTGGCGAAATCGAAGGAAGCGGAGAGATAGTAAGTGCAATCT
modifications: 5' SH-(CH2)6
On to B2, for which the binding result in series [3] is on record as “binds”.

The record behind these values is paper PMC10535226, “Rapid SERS Detection of Botulinum Neurotoxin Type A”.
